From the supplement of paper PMC10899765

Assays:
Conditions in all cases: 20 nM; 72 h
[1] = tested on: MCF10A; experiment: 5+ nucleoli phenotype percent effect (relative to siNT 0% and siKIF11 100%); higher = more cells with five or more nucleoli
Protocol: (§1)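 After 72 h, cells were fixed and stained with Hoechst and anti-fibrillarin, and nucleoli per nucleus were counted with CellProfiler. Values are plate-adjusted percent effect for the one-nucleolus and 5+ nucleoli phenotypes, normalised to siNT (0%) and to the positive controls siNOL11 or siKIF11 (100%), as the mean of biological triplicates. Percent viability is the nuclei count relative to siNT.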

[2] = tested on: MCF10A; experiment: one-nucleolus phenotype percent effect (relative to siNT 0% and siNOL11 100%); higher = more cells with one nucleolus (ribosome biogenesis inhibition)
Protocol: as §1

[3] = tested on: MCF10A; experiment: percent viability (nuclei count relative to siNT); higher = more viable cells
Protocol: as §1

Sequence | 5+ nucleoli phenotype percent effect [1] | one-nucleolus phenotype percent effect [2] | percent viability [3]
ACGGGGAGUCAGGCAGUGGUGGA [hsa-miR-6777-5p] | -32.1% | 32% | 28.5%
CUGGCCUCUUCUUUCUCCUAG [hsa-miR-6878-3p] | 96% | -7.63% | 45.7%
UGAGUGACAGGGGAAAUGGGGA [hsa-miR-1236-5p] | -4.72% | -0.0652% | 36.9%
UAACACUGUCUGGUAAAGAUGG [hsa-miR-141-3p] | 44.6% | -19.9% | 83%
GGAUAUCAUCAUAUACUGUAAG [hsa-miR-144-5p] | 2.47% | -0.41% | 54.5%
GUCAUACACGGCUCUCCUCUCU [hsa-miR-485-3p] | -1.94% | -9.37% | 54.4%
AGGAAACAGGGACCCA [hsa-miR-4261] | -16.8% | 37.1% | 32.1%
AGACUUCCCAUUUGAAGGUGGC [hsa-miR-617] | -37.8% | 43.9% | 43.8%
AGUUUUGCAUAGUUGCACUACA [hsa-miR-19a-5p] | 35.3% | -20% | 124%
AAAAGUAAUUGUGGAUUUUGCU [hsa-miR-548ab] | 30.5% | -19.3% | 67.8%
UGGAGUGUGACAAUGGUGUUUG [hsa-miR-122-5p] | 14.4% | -11.4% | 52.7%
UCAAUAAAUGUCUGUUGAAUU [hsa-miR-95-5p] | 26.3% | -26.5% | 101%
GUGUGCGGAAAUGCUUCUGCUA [hsa-miR-147b] | 33.7% | -12.4% | 70.3%
AAAGACAUAGUUGCAAGAUGGG [hsa-miR-3617-5p] | 37.2% | -28.6% | 188%
GUGUUAAUUAAACCUCUAUUUAC [hsa-miR-2053] | 3.14% | -1.87% | 91.5%
UGCAAAAGUAAUCACAGUUUUU [hsa-miR-548f-5p] | 23.9% | -27.5% | 75.6%
UGCUGGAUCAGUGGUUCGAGUC [hsa-miR-1287] | -26.2% | 64.1% | 25.2%
UGGAAUGUAAAGAAGUAUGUAU [hsa-miR-1] | -15.8% | 8.45% | 38.5%
AUCUGCUCUCUUGUUCCCAG [hsa-miR-6828-3p] | 10.5% | 2.43% | 43.4%
AAAACUGCAGUUACUUUUGC [hsa-miR-548av-3p] | 35.1% | -20.6% | 83.1%
CAGCCACAACUACCCUGCCACU [hsa-miR-449b-3p] | 1.67% | -5.19% | 71.9%
GGGGGCCGAUACACUGUACGAGA [hsa-miR-128-2-5p] | 34.6% | -25.2% | 91.1%
UCUGGGCAACAAAGUGAGACCU [hsa-miR-1285-3p] | 2.8% | 20.6% | 28.8%
UCCCUGAGCAAAGCCAC [hsa-miR-4319] | 9.87% | -1.9% | 59.9%

Sequence | 5+ nucleoli phenotype percent effect [1] | one-nucleolus phenotype percent effect [2] | percent viability [3]
UUGCUAGUUGCACUCCUCUCUGU [hsa-miR-449c-3p] | -15.1% | 7.23% | 27.2%
AGGAGGCAGCGCUCUCAGGAC [hsa-miR-650] | -3.4% | 23.2% | 33.8%
AAGUGCCUCCUUUUAGAGUGUU [hsa-miR-519e-3p] | -1.33% | -10.9% | 40.9%
UACUCAAAAAGCUGUCAGUCA [hsa-miR-888-5p] | 11.8% | -13.4% | 82.3%
AUAUGCCUGGCUAGCUCCUC [hsa-miR-4633-5p] | -31.2% | 27.8% | 31.4%
AUCAAAUAAGGACUAGUCUGCA [hsa-miR-3671] | 14.8% | -10.1% | 74.3%
UUCAAGUAAUUCAGGUG [hsa-miR-1297] | 45.2% | -17.3% | 121%
UGGGGGUGUGGGGAGAGAGAG [hsa-miR-7110-5p] | -6.75% | 6.58% | 40.9%
CCUCAAAUGUGGAGCACUAUUCU [hsa-miR-372-5p] | 77.2% | -27.9% | 140%
CCAAACCAGUCGUGCCUGUGG [hsa-miR-6715a-3p] | -42% | 24.3% | 40.8%
GAUGAUGAUGGCAGCAAAUUCUGAAA [hsa-miR-1272] | 4.28% | 8.72% | 76.8%
CAGGGAACCAGUUGGGGCUU [hsa-miR-6822-5p] | -8.39% | 20.9% | 20.6%
UGGCCCGGCGACGUCUCACGGUC [hsa-miR-4745-3p] | 45% | -29.1% | 58.7%
AAUCCUUGGAACCUAGGUGUGAGU [hsa-miR-362-5p] | -6.28% | -1.23% | 36.6%
ACUGCAGUGAAGGCACUUGUAG [hsa-miR-17-3p] | 12.2% | -6.73% | 70.9%
CAGGAAGGAGACAGGCAGUUCA [hsa-miR-6876-5p] | -24.5% | 10.4% | 21.8%
UAAUGAUUCAUCAGACUCAGAU [hsa-miR-580-5p] | -17.8% | 14% | 32.9%
UCUCUCUCCCACUUCCCUGCAG [hsa-miR-7110-3p] | 1.36% | -0.286% | 25.4%
UACAUGGAUGGAAACCUUCAAGC [hsa-miR-4802-3p] | -3.05% | -8.74% | 70.6%
CAAGCUCGUGUCUGUGGGUCCG [hsa-miR-99b-3p] | -2.82% | 8.24% | 84.3%
CGGGGCCGUAGCACUGUCUGAGA [hsa-miR-128-1-5p] | 21.2% | 22.5% | 26.1%
CAAGCUUGUAUCUAUAGGUAUG [hsa-miR-100-3p] | 19.2% | -5.48% | 77.2%
CAUCAUCGUCUCAAAUGAGUCU [hsa-miR-136-3p] | 22.1% | -9.83% | 37.4%
CACACAAGUGGCCCCCAACACU [hsa-miR-4731-3p] | -12.1% | 8.2% | 29.9%
